The text below walks through data of patent US12240912 (AARHUS UNIVERSITET, dated 2025).

Usually koff stands for a measure of how fast the partners let go of each other. A high value points to a short-lived complex. The kon is a measure of how fast the partners come together. Read a low kon as slower complex formation.

Assay [1] has as its target T1, Human C4 (human, UniProt P0C0L4 20-675; P0C0L4 680-1446; P0C0L4 1454-1744).
T1 construct: also called hC4
As to the kind of experiment: SPR (BIAcore T200), biotinylated hC4bNb6 captured on streptavidin, analyte C4; apparent KD, mean ± S.E.; the table names only the analyte. The method, then:
(§1) Surface plasmon resonance measurements were conducted using a BIAcore T200 instrument (GE Healthcare). Streptavidin was diluted to 10 μg/mL in 10 mM sodium acetate pH=4.5 and immobilized to 100 RU on the carboxymethylated dextran surface of a CM5 sensor chip (GE Healthcare) using an amine coupling kit. […] The binding measurements were performed in 20 mM HEPES, 150 mM NaCl, 3 mM MgCl2, 0.05% Tween 20 pH=7.5 at 30 μL/min flow rate. At the end of each concentration measurement the surface was regenerated by injection of 100 mM glycine pH=2.7 for three cycles of 10 s contact time. Sensograms were recorded at concentrations 0.1, 5, 10, 25, 50 and 100 nM for C4, while at 0.1, 1, 5, 10, 25 nM for C4b. Fitting of the data was performed for all the measured concentrations simoultaneously, using BIAevaluation software (GE Healthcare). The apparent equilibrium dissociation constants (KD) were calculated from the ratio between the association and dissociation constants.

Assay [2] addresses T2, Human C4b (human, UniProt P0C0L4 20-675; P0C0L4 757-1446; P0C0L4 1454-1744).
T2 construct: Both allotypes may be present; also called hC4b
As to the kind of experiment: SPR (BIAcore T200), biotinylated hC4bNb6 captured on streptavidin, analyte C4b; mean ± S.E.; the table names only the analyte. The method, then:
as §1
For orientation: SPR reads the build-up and loss of mass on a sensor chip optically.

Assay [3] concerns the target T1, Human C4. The assay is described as follows: SPR (BIAcore T200), biotinylated hC4bNb6 captured on streptavidin, analyte C4; mean ± S.E.; the table names only the analyte. How it is done:
as §1

The target of assay [4] is T2, Human C4b. As to the kind of experiment: SPR (BIAcore T200), biotinylated hC4bNb6 captured on streptavidin, analyte C4b; apparent KD, mean ± S.E.; the table names only the analyte. The method, then: as §1
Assay [5] concerns the target T3, Human C1q (human, UniProt P02745 23-245; P02746 28-253; P02747 29-245).
T3 construct: Purified human C1q, or C1q in normal human serum, depending on the assay; also called hC1q
The assay is described as follows: Plate assay: C1q binding to wells coated with human IgG in the presence of 0.32-1000 ng/ml nanobody, relative fluorescence; blocked ligand: IgG.

Another assay deals with T4, Mouse C4b (mouse, UniProt P01029 20-673; P01029 754-1443; P01029 1448-1738).
T4 construct: in C4b the C4a part is cleaved off; The source of the mC4b is not described; also called mC4b
T4 sequence (P01029 20-673 limits assumed, chain 1 of 3): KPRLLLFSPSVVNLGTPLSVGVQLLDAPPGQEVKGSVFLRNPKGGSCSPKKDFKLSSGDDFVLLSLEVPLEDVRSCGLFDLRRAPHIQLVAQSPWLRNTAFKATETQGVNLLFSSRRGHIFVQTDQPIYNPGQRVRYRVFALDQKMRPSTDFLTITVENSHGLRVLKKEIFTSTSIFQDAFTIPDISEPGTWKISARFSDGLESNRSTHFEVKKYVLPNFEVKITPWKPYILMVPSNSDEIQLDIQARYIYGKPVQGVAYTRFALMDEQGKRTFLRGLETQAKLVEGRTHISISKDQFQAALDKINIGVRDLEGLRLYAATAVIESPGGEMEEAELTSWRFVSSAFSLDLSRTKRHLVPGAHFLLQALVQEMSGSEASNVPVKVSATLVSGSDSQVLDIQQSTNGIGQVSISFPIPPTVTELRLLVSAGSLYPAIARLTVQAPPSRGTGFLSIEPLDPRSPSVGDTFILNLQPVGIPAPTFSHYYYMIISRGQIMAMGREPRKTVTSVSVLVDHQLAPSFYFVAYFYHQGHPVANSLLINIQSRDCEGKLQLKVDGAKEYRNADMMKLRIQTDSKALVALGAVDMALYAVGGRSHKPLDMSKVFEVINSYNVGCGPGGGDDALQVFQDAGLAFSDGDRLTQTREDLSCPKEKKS
T4 sequence (P01029 754-1443 limits assumed, chain 2 of 3): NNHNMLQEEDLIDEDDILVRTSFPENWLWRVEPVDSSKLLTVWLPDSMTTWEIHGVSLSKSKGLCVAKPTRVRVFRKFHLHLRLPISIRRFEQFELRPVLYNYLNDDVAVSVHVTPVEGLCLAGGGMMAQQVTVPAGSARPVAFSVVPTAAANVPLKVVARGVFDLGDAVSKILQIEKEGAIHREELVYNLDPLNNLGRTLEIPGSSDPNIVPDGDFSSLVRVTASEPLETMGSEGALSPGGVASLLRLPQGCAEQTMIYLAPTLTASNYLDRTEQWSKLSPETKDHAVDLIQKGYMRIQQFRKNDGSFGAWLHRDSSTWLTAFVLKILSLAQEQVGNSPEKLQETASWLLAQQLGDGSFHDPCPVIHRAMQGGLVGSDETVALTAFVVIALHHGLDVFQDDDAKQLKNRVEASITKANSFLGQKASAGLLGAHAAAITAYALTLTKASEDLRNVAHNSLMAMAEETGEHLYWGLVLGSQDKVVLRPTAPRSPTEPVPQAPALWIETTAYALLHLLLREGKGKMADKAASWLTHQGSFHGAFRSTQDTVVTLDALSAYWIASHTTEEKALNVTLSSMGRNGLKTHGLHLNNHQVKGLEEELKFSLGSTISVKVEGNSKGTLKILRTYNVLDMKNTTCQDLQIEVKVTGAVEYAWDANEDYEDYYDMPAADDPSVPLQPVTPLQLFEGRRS
T4 sequence (P01029 1448-1738 limits assumed, chain 3 of 3): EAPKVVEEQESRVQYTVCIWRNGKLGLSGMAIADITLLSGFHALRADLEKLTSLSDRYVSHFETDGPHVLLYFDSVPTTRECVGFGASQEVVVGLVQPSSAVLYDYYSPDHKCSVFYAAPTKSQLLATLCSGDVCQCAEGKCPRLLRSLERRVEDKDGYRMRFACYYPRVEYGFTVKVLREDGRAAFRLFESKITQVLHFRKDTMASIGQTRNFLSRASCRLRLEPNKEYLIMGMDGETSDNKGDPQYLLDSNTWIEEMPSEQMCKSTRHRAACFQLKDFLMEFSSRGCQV
The assay is described as follows: overview table, + indicates binding; method not given.

Assay [6] has as its target T3, Human C1q. Described as above.
Assay [7] addresses T2, Human C4b. The assay is described as follows: SEC (Superdex 200 increase) of the proconvertase C4b2 and of its parts.
The next assay addresses T5, Mouse C3 (mouse, UniProt P01027 25-1663).
T5 construct: the preparation tested is not described; also called mC3
The assay is described as follows: overview table, + indicates binding; method not given.

The target in assay [8] is T6, Human C3 (native C3) (human, UniProt P01024 23-1663).
T6 construct: Purified from outdated human plasma; The entry is given as one stretch, 23-1663; also called hC3; Nat C3
The assay is described as follows: surface plasmon resonance.

For another assay, the target named is T7, Human C3b (human, UniProt P01024 23-667; P01024 749-1663).
T7 construct: also called hC3b
The assay is described as follows: surface plasmon resonance.

For a further assay, the target named is C3MA (UniProt P01024 23-1663, limits assumed). As to the kind of experiment: surface plasmon resonance.
Assay [9] concerns the target T1, Human C4. As to the kind of experiment: overview table, + indicates binding; method not given.
Assay [10] concerns the target T2, Human C4b. Described as above.
The target of assay [11] is T2, Human C4b. As to the kind of experiment: SEC. (In general: SEC sorts molecules by how far they enter the pores of the column.)
In assay [12] the target is T8, globular head of human C1q (hC1qGH) (human).
T8 construct: domain: globular head; Made in stably transfected HEK293F cells; also called hC1gGH
As to the kind of experiment: bio-layer interferometry, IF75 on the sensors, hC1qGH in solution, global fit.

The target in assay [13] is T6, Human C3 (native C3). As to the kind of experiment: SEC (Superdex 200 increase), 1:1 molar mix.

T3 sequence (P02745 23-245 limits assumed, chain 1 of 3): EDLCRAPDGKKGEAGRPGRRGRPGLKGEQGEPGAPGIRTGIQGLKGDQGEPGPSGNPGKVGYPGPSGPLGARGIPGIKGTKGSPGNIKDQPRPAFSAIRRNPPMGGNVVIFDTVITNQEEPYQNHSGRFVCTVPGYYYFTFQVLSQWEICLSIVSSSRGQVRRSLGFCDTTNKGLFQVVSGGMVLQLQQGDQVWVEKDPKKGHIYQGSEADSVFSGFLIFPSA
T3 sequence (P02746 28-253 limits assumed, chain 2 of 3): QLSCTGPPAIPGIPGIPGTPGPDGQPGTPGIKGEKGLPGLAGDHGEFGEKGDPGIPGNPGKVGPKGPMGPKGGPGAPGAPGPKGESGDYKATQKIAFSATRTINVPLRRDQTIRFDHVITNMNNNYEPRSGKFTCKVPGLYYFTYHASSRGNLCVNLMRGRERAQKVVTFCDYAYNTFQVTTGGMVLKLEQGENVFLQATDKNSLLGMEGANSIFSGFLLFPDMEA
T3 sequence (P02747 29-245 limits assumed, chain 3 of 3): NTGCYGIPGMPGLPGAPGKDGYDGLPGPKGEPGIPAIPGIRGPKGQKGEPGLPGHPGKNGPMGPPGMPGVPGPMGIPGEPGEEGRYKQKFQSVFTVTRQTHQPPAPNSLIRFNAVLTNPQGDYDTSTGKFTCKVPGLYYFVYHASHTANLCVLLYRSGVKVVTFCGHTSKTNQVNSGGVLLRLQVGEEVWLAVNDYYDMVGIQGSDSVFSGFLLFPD
T1 sequence (P0C0L4 20-675 limits assumed, chain 1 of 3): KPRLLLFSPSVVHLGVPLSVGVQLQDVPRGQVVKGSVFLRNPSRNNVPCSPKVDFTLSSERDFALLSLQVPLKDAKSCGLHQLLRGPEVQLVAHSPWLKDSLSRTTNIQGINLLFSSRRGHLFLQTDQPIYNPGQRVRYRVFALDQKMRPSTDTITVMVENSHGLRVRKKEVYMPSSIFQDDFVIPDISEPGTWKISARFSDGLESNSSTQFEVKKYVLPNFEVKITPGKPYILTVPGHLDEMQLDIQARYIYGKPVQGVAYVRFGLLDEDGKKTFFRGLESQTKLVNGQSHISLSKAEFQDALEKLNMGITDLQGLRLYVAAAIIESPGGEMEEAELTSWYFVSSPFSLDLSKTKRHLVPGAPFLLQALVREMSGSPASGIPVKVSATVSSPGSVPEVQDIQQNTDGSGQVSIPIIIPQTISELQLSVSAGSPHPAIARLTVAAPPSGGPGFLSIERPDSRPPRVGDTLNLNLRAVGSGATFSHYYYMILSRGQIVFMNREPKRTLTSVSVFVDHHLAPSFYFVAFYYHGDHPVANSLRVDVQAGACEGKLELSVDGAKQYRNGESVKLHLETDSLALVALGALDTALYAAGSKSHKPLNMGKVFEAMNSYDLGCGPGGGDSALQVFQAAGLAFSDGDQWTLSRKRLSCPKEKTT
T1 sequence (P0C0L4 680-1446 limits assumed, chain 2 of 3): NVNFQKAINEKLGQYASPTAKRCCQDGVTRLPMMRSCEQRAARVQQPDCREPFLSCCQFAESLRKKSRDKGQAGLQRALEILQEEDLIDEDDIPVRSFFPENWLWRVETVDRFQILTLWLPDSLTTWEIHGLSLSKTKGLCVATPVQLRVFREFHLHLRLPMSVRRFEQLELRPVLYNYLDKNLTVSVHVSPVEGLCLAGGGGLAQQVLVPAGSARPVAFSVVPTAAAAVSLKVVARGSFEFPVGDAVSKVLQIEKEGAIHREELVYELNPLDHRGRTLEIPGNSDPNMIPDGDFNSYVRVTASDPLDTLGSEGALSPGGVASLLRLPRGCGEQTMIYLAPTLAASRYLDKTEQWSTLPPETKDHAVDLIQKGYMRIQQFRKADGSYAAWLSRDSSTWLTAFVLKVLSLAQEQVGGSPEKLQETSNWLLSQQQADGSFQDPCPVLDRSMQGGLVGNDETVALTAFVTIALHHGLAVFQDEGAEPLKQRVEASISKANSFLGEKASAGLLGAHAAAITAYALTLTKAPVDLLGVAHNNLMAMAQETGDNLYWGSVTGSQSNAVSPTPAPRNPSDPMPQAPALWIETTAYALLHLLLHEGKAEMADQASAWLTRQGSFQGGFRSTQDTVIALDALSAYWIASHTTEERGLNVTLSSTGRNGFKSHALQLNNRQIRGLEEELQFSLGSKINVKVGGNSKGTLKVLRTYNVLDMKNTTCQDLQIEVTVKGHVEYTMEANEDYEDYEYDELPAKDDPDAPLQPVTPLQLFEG
T1 sequence (P0C0L4 1454-1744 limits assumed, chain 3 of 3): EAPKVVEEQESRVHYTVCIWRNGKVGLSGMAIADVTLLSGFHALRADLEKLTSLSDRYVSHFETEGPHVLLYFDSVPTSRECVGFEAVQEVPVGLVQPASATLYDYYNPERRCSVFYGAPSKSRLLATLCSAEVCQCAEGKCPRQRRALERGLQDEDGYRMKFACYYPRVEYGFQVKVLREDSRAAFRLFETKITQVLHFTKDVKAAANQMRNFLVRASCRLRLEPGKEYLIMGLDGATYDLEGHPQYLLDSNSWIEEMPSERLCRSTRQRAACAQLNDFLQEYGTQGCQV
T2 sequence (P0C0L4 20-675 limits assumed, chain 1 of 3): as the sequence (P0C0L4 20-675 limits assumed, chain 1 of 3) above
T2 sequence (P0C0L4 757-1446 limits assumed, chain 2 of 3): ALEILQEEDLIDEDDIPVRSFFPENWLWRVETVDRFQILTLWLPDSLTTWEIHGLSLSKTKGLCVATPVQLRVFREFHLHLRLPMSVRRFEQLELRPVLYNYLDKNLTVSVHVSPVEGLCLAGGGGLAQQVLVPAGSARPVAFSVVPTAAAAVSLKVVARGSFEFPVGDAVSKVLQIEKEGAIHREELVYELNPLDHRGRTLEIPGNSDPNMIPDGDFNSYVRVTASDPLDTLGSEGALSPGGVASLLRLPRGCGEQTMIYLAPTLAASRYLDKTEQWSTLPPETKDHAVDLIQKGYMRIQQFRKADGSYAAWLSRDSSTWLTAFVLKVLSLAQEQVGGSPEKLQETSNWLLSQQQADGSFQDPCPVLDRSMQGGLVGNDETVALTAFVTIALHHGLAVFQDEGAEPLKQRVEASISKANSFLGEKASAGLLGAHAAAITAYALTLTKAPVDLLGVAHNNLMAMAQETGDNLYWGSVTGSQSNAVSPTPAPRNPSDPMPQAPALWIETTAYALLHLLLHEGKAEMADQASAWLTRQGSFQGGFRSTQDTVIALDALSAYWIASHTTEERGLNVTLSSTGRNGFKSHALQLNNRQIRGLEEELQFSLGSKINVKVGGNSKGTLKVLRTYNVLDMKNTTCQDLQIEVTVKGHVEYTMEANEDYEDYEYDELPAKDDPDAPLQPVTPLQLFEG
T2 sequence (P0C0L4 1454-1744 limits assumed, chain 3 of 3): as the sequence (P0C0L4 1454-1744 limits assumed, chain 3 of 3) above

B1: hC4bNb6 (VHH)
VHH: QVQLVETGGGVVRAGGSLRLSCAASGRTLGRYSMAWFRQAPGKERQFVAAINWSGGSTYYPDFAKDRFTISRDSAKNMVYLQMNSLKPEDTAVYYCAAGGMDIEITRANEYDYWGQGTQVTVSS
notes: Biotinylated and captured on streptavidin for SPR
In the case of B1, the values for the Kd with Human C4 [1] and with Human C4b [4] were 0.46 nM and 0.12 nM, respectively. For the same molecule, the values for the koff with Human C4b [2] and in the assay with Human C4 [3] were 6.1e-05 s⁻¹ and 5.7e-05 s⁻¹, respectively. The association rate constant (kon) was 530000 M⁻¹ s⁻¹ with Human C4b [2] and 123000 M⁻¹ s⁻¹ with Human C4 [3].

B2: IH33 (VHH)
VHH: QVQLVETGGGLVQTGGSLRLSCAASGSTDSIAAIIWYRQTPENEREFVAGITSGVNTNYAAPVKGRFTISRDNAKNTVYLQMNSLKPEDTGVYYCKAAVVMGPSTTDYWGQGTQVTVSS
B2: in the assay with Human C1q [5], the binding result is “binds”.

B3: IH31 (VHH)
VHH: QVQLVESGGGLVQAGGSLRLSCAASGRTSSDHITAWFRQAPGKEREFVASINWSGSRAYYADSDKRRFTISRDNAKNTVSLQTNSLKPEDTAVYYCAVKFADISDAYYHHQTDYDYWGQGTQVTVSS
In the case of B3, in the assay with Human C1q [5], the binding result is “binds”.

B4: pNSL270 (VHH)
VHH: QVQLVESGGGLVQAGGSLRLSCVASASTLDIYTYAMAWFRQAPGKRREFVAAISRNGYSTYYADSVKGRFTISKLNAKNTLYLQMNSLEPEDTAAYYCAADRTTEVVDREDDYGYWGQGTQVTVSS
Consider B4, for which the binding result in the assay with Mouse C4b was “binds”.

B5: IH39 (VHH)
VHH: QVQLVESGGGLVQAGGSLRLSCVAYGVASVTTVMGWFRQSPGKEREFVAAIGPSGGTHYGDSAKGRFTISRDNAKNTVYLQMNSLKPEDTAVYDCAADLRGGGMWASSGRYEYWGQGTQVTVSS
On to B5, for which the binding result in the assay with Human C1q [6] is reported as “binds”.

B6: C2 (Cys261Ala, Gln263Lys) (enzyme, UniProt P06681 21-752, looked up)
chain: APSCPQNVNISGGTFTLSHGWAPGSLLTYSCPQGLYPSPASRLCKSSGQWQTPGATRSLSKAVCKPVRCPAPVSFENGIYTPRLGSYPVGGNVSFECEDGFILRGSPVRQCRPNGMWDGETAVCDNGAGHCPNPGISLGAVRTGFRFGHGDKVRYRCSSNLVLTGSSERECQGNGVWSGTEPICRQPYSYDFPEDVAPALGTSFSHMLGATNPTQKTKESLGRKIQIQRSGHLNLYLLLDASKSVSENDFLIFKESASLMVDRIFSFEINVSVAIITFASEPKVLMSVLNDNSRDMTEVISSLENANYKDHENGTGTNTYAALNSVYLMMNNQMRLLGMETMAWQEIRHAIILLTDGKSNMGGSPKTAVDHIREILNINQKRNDYLDIYAIGVGKLDVDWRELNELGSKKDGERHAFILQDTKALHQVFEHMLDVSKLTDTICGVGNMSANASDQERTPWHVTIKPKSQETCRGALISDQWVLTAAHCFRDGNDHSLWRVNVGDPKSQWGKEFLIEKAVISPGFDVFAKKNQGILEFYGDDIALLKLAQKVKMSTHARPICLPCTMEANLALRRPQGSTCRDHENELLNKQSVPAHFVALNGSKLNINLKMGVEWTSCAEVVSQEKTMFPNLTDVREVVTDQFLCSGTQEDESPCKGESGGAVFLERRFRFFQVGLVSWGLYNPCLGSADKNSRKRAPRSKVPPPRDFHINLFRMQPWLRQHLGDVLNFLPL
For the molecule B6, the binding result with Human C4b [7] was “binds”.

B7: IH35 (VHH)
VHH: QVQLVETGGGVAQAGGSLRLSCAASGFSFDDYAIGWLRQAPGKEREGVSCISAGDGSPQYADSVKGRFTISSDNAKNTVYLQMNSLKPEDTAVYYCAVSRWSNCAWDYYGMDPWGKGTLVTVSS
In the case of B7, the binding result in the assay with Human C1q [6] was “binds”.

B8: DI62 (VHH)
VHH: QVQLVESGGGLVQAGGSLRLSCAASGRTFSDYTMGWFRQAPGKEREFVAGLSTGGSFTRYAASVEGRFTISRDNAKTTVYLQMNNLQPEDTAVYYCAADFTPYGTNWSRFREARDHYWGQGTQVTVSS
notes: Llama nanobody made in E. coli and purified on His-Trap
On to B8, for which the binding result in the assay with Mouse C3 is reported as “binds”. For the same molecule, the values for the Kd with Human C3 (native C3) [8], in the assay with Human C3b and in the assay with C3MA were 5.5 nM, 4.7 nM and 3.2 nM, respectively. Also, the koff with Human C3 (native C3) [8] was 0.00057 s⁻¹; in the assay with Human C3b it was 0.00029 s⁻¹; with C3MA, 0.00026 s⁻¹. Moreover, the kon worked out at 100000 M⁻¹ s⁻¹ in the assay with Human C3 (native C3) [8], 62000 M⁻¹ s⁻¹ with Human C3b and 80000 M⁻¹ s⁻¹ with C3MA.

B9: hC4Nb5 (VHH)
VHH: QVQLVETGGGLVQPGGSLRLSCAASGRTFNKNPMAWFRQPPGQERDLVAAISWSGDSTNYANSVQGRFTISRNNAQRTVSLSMNNLKPEDTAVYYCAAVGRTDYSPNSLALTAQNYDYWGQGTQVTVSS
notes: also called hC4bNb5
Turning to B9, the binding result with Human C4 [9] and with Human C4b [10] was “binds” in each case.

B10: hC4Nb8 (VHH)
VHH: QVQLVESGGGLVQTGDSLRLSCAASGRTFSRYAMGWFRQAPGKERELVAAINWSGGSTYYADFAKGRFTISRDNAKNMLYLRMSSLKPEDTAVYYCAAGGPEVEITRANEYDYWGQGTQVTVSS
notes: also called hC4bNb8
For B10, the binding result with Human C4b [11] is “binds”.

B11: IF75 (VHH)
VHH: QVQLVETGGGLVQAGGSLRLSCAASGRTFNNDVMAWFRQAPGTEREFVALITAGGGTHYADSVKGRFVISRDNDKNMAYLQMNSLKSEDTAIYYCGADENPPGWPSRWSSAYDYWGQGTQVTVSS
notes: also called 59IF75
Turning to B11, in the assay with Human C1q [5], the binding result was “binds”. In addition, the Kd in assay [12] came to 0.5 nM.

B12: EA57 (VHH)
VHH: QVQLVESGGGLVQPGGSLRLSCAASGFTLNQYAIGWFRQAPGKEREGVSCISNSDGGLYYADSVKGRFTISRDNAKNTVYLQMNSLKPEDTAVYYCATDPGGPTMYGSRWCDSRLFYSWGQGTQVTVSS
Consider B12, for which, in the assay with Human C1q [5], the binding result is on record as “binds”.

B13: EWE-hC3Nb1 (VHH)
VHH: QVQLVETGGGLVQAGGSLRLSCAASGSIFSINAMGWFRQAPGKEREFVATINRSGGRTYYADSVKGRFTISRDNGKNMVYLQMHSLKPEDTAIYYCAAGTGWSPQTDNEYNYWGQGTQVTVSS
notes: Biotinylated for BLI; also called EWE-hC3bNb1
With B13, in the assay with Human C3 (native C3) [13], the binding result is on record as “no binding”.

B14: hC4Nb4 (VHH)
VHH: QVQLVETGGGLVEAGGSLRISCAASGRYAMGWFRQAPGNERDFVAAISRSGDSANYADTAWGRFTISRDNAQNTMTLQMNSLKPEDTAVYYCAAKAGLYSLNSLFLRSQEYTYWGQGTQVTVSS
notes: also called hC4bNb4
Regarding B14, the binding result with Human C4 [9] and with Human C4b [10] was “binds” in each case.
